The values that follow come from WO2007059300A2 (dated 2007).

B1: fully human anti-ALK IgG D10 (antibody, V domains shown)
VH: EVQLLESGGGLVQPGGSLRLSCAASGFTFSKYGMHWVRQAPGKGLEWVSYIVPSGGYTIYADSVKGRFTISRDNSKNTLYLQMNSLRAEDTAMYYCAKLAGDWFDPWGQGTLVTVSS
VL: DIQMTQSPLSLPVTLGQPASISCRSSQSLVHSNGNTYLSWFHQRPGQSPRRLIHKISDRVSGVPDRFSGSGSGTDFTLKISRLEAEDVGIYYCMQGTHWPPTFGQGTKVEIK
notes: Full length fully human IgG; also called DlO; DlO antibody
B2: fully human anti-ALK IgG E1 (antibody, V domains shown)
VH: EVQLLESGGGLVQPGGSLRLSCAASGFTFSWYSMWWVRQAPGKGLEWVSSIRPSGGKTTYADSVKGRFTISRDNSKNTLYLQMNSLRAEDTAVYYCAKGLDPNGIAAAGGEGYWGQGTLVTVSS
VL: QSALTQPASVSGSPGQSITITCSGDALPKQFGYWYQQKPGQAPILVIYKDTERPSGIPERFSGSSSGTIVTLTISGVRAEDEADYYCQSADSSGNSVVFGGGTKLTVLG
notes: Full length fully human IgG; also called El
B3: fully human anti-ALK IgG B6 (antibody, V domains shown)
VH: EVQLLESGGGLVQPGGSLRLSCAASGFTFSFYTMFWVRQAPGKGLEWVSSIRPSGGLTGYADSVKGRFTISRDNSKNTLYLQMNSLRAEDTAVYYCARGMQRGLDYWGQGTLVTVSS
VL: QSALSQPPSASGTPGQRVSISCSGSSSNIGSYYVYWYQHLPGTAPKLLIYRNNQRPSGVPDRFSGSKSGTSASLAISGLRSEDESDYYCAAWDDRLSAWVFGGGTKLTVLG
notes: Full length fully human IgG
B4: fully human anti-ALK IgG A2 (antibody, V domains shown)
VH: EVQLLESGGGLVQPGGSLRLSCAASGFTFSGYTMYWVRQAPGKGLEWVSSISPSGGITFYADSVKGRFTISRDNSKNTLYLQMNSLRAEDTAVYYCARGRLFWSGYYTNRLGYAFDIWGQGTMVTVSS
VL: DIQMTQSPSSLSASVGDRVTITCRASQSIRSYLNWYQQKPGKAPKLLIYAASNLQSGVPSRFSGSGSGTDFTLSISSLQPEDFATYYCQQSYSTLWTFGQGTKVEIK
notes: Full length fully human IgG
B5: fully human anti-ALK IgG A7 (antibody, V domains shown)
VH: EVQLLESGGGLVQPGGSLRLSCAASGFTFSNYIMSWVRQAPGKGLEWVSWISSSGGFTQYADSVKGRFTISRDNSKNTLYLQMNSLRAEDTAVYYCARVIAAAGAFDYWGQGTLVTVSS
VL: DIQMTQSPSSVAASVGDRVTITCRASQDISTWLAWYQQKPGKAPKLLLSGASRLERGVPSRFSGSGSGTDFTLTIRGLQSEDFATYYCQQARSFPPTFGQGTRVEMR
notes: Full length fully human IgG
B6: fully human anti-ALK IgG E5 (antibody, V domains shown)
VH: EVQLLESGGGLVQPGGSLRLSCAASGFTFSLYPMMWVRQAPGKGLEWVSVISSSGGFTFYADSVKGRFTISRDNSKNTLYLQMNSLRAEDTAVYYCARSLAYIFDAFDIWGQGTMVTVSS
VL: DIQMTQSPGTLSLSPGERATLYCRASQSLYSSYLAWYQQRPGQAPRLLIYDTSSRATGIPDRFSGSGSGTDFTLTISRLEPEDFAVYYCQQYGTSLRTFGQGTKVEIK
notes: Full length fully human IgG
B7: fully human anti-ALK IgG B8 (antibody, V domains shown)
VH: EVQLLESGGGLVQPGGSLRLSCAASGFTFSQYVMAWVRQAPGKGLEWVSSIWSSGGMTWYADSVKGRFTISRDNSKNTLYLQMNSLRAEDTAVYYCAKHGVLRYFDWSMPFDFWGQGTLVTVSS
VL: DIQMTQSPPSLSASVGDRVTITCRTSQNISSYLNWYQQKPGKAPKLLIYAASSLQSGVPSRFSGSGSGTDFTLTIRSLQPEDFAAYYCQQSYTSLTFGGGTKVEIK
notes: Full length fully human IgG
B8: fully human anti-ALK IgG C1 (antibody, V domains shown)
VH: EVQLLESGGGLVQPGGSLRLSCAASGFTFSMYPMDWVRQAPGKGLEWVSRISSSGGTTEYADSVKGRFTISRDNSKNTLYLQMNSLRAEDTAVYYCTRRFCISGVCPFEYWGQGTLVTVSS
VL: QSALTQPPSASGTPGQRVTISCSGSSSNIGSNTVNWYQQLPGTAPKLLIYSNNQRPSGVPDRFSGSKSGTSASLAISGLQSEDEADYYCQSYDNSLTNFVFGSGTKVTVLG
notes: Full length fully human IgG; also called Cl
B9: fully human anti-ALK IgG B2 (antibody, V domains shown)
VH: EVQLLESGGGLVQPGGSLRLSCAASGFTFSHYMMEWVRQAPGKGLEWVSGIVPSGGLTTYADSVKGRFTISRDNSKNTLYLQMNSLRAEDTAVYYCATITMGAFDIWGQGTMVTVSS
VL: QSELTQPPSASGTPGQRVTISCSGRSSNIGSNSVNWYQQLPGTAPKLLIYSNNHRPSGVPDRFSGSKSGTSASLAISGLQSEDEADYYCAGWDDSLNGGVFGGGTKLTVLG
notes: Full length fully human IgG
B10: fully human anti-ALK IgG D5 (antibody, V domains shown)
VH: EVQLLESGGGLVQPGGSLRLSCAASGFTFSNYRMSWVRQAPGKGLEWVSWIYSSGGMTTYADSVKGRFTISRDNSKNTLYLQMNSLRAEDTAVYYCARERSKNYDTSVPVGFDIWGQGTMVTVSS
VL: DIQMTQSPATLSLSPGERATLSCRASQSISSFLAWYQHKPGQAPRLLIYDASNRATGIPARFSGSGSGTDFTLTISSLEPEDFAVYYCQQRTTWPPALTFGGGTKVEIK
notes: Full length fully human IgG

T1 sequence (Q9UM73 other isoform, or with tags, fused parts or gaps): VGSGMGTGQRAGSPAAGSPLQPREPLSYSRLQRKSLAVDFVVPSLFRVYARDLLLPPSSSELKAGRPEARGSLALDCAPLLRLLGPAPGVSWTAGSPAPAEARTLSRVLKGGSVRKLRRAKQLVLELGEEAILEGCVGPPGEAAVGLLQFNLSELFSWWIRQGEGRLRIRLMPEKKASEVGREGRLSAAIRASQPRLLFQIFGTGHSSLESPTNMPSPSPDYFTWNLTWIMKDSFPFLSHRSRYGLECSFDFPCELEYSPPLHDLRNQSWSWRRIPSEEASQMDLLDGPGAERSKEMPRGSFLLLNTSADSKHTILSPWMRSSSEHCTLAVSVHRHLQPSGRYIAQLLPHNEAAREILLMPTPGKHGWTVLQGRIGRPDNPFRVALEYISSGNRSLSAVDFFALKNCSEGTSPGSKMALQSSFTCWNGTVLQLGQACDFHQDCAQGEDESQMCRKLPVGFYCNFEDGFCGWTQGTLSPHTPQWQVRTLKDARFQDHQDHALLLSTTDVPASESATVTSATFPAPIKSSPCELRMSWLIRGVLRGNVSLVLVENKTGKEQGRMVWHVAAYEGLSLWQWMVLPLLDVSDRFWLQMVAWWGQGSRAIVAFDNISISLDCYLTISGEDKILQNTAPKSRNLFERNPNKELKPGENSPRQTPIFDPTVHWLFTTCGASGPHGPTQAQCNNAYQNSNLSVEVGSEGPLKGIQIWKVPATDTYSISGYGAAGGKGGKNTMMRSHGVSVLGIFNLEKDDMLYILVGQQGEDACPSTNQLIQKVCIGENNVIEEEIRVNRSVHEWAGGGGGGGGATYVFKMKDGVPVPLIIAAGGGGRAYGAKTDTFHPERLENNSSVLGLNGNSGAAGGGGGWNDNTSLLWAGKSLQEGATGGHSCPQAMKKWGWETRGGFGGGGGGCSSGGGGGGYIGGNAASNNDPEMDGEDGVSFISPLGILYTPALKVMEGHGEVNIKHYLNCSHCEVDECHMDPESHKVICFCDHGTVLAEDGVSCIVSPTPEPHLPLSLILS

The first assay concerns the target T1, ALK-ECD-myc/his tag protein (human, UniProt Q9UM73 19-1038).
T1 construct: Expressed in 293/293F cells and purified from conditioned medium; biotin labelled for the soluble panning; also called recombinant ALK-ECD-myc/his tag; ALK-ECD protein; not shown: Myc/His tag
Nature of the assay: ELISA, ALK-ECD-myc/his coated at 10 μg/mL, anti-human IgG-HRP.
Turning to B1, the binding result is reported as “binds”.
The same measure, in the same setting: to B2 belongs “binds”; to B3, “binds”; to B4, “binds”.
Still for that read-out and setting: in the case of B5 it was “binds”; in that of B6, “binds”.
B7: the binding result is on record as “binds”.
Same read-out and setting: in the case of B8 it was “binds”; in that of B9, “binds”; in that of B10, “binds”.

The target of another assay is T2, ALK expressed on the cell surface (human, UniProt Q9UM73 19-1620).
T2 construct: also called ALK protein expressed on the cell surface; ALK-expressing cells
T2 sequence (Q9UM73 other isoform, or with tags, fused parts or gaps limits assumed): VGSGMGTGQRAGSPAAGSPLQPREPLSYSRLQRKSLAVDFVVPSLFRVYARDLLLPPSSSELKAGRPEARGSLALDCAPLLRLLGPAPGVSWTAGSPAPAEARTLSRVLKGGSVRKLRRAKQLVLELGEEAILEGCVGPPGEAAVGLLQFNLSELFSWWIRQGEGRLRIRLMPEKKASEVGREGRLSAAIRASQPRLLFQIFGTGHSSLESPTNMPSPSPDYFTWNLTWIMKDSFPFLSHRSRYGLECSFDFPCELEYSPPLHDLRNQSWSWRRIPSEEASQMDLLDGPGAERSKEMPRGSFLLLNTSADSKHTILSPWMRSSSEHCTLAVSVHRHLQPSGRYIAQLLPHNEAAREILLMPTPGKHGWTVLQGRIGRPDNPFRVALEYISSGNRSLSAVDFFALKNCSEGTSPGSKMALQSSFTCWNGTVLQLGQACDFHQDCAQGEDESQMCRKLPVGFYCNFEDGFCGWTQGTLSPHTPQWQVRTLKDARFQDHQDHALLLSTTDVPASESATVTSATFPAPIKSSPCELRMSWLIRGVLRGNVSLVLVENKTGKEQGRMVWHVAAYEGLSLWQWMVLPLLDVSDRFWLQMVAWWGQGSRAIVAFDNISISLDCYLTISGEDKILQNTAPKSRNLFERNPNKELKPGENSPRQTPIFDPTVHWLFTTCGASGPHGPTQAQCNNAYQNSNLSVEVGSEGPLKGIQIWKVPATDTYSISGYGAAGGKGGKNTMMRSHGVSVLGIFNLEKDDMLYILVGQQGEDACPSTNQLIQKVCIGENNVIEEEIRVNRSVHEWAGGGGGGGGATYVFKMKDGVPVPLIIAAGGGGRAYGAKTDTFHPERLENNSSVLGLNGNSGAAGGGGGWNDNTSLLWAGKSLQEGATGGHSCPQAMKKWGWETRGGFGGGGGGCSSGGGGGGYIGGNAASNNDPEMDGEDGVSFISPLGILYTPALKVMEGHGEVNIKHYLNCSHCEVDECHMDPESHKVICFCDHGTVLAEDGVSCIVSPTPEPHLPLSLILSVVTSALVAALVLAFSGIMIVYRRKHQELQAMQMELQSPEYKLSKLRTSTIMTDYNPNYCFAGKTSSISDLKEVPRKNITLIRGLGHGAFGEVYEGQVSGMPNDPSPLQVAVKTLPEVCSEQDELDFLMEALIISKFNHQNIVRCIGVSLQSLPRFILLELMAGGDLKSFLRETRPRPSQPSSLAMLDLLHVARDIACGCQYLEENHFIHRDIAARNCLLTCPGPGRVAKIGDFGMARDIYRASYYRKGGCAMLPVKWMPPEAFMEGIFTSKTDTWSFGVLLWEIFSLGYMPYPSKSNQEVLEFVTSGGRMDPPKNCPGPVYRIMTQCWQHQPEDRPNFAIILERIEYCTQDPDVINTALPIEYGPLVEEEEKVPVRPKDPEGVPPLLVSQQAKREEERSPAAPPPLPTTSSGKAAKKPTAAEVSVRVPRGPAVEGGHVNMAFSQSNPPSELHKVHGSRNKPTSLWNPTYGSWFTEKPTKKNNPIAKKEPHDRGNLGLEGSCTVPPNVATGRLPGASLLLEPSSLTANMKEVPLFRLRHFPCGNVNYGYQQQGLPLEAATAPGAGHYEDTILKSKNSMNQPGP
Nature of the assay: FACS on ALK positive cells, 1 to 20 μg/mL IgG, FITC anti-human IgG.
Turning to B1, the binding result was “binds”.
